The results in this text go back to a protein production outcome set (Wang et al. 2014).

A short description of this data set: label from the status in PepcDB records.
On to “MFLGEDYLLTNRAAVRLFNEVKDLPIVDPHNHLDAKDIVENKPWNDIWEVEGATDHYVWELMRRCGVSEEYITGSRSNKEKWLALAKVFPRFVGNPTYEWIHLDLWRRFNIKKVISEETAEEIWEETKKKLPEMTPQKLLRDMKVEILCTTDDPVSTLEHHRKAKEAVEGVTILPTWRPDRAMNVDKEGWREYVEKMGERYGEDTSTLDGFLNALWKSHEHFKEHGCVASDHALLEPSVYYVDENRARAVHEKAFSGEKLTQDEINDYKAFMMVQFGKMNQETNWVTQLHIGALRDYRDSLFKTLGPDSGGDISTNFLRIAEGLRYFLNEFDGKLKIVLYVLDPTHLPTISTIARAFPNVYVGAPWWFNDSPFGMEMHLKYLASVDLLYNLAGMVTDSRKLLSFGSRTEMFRRVLSNVVGEMVEKGQIPIKEARELVKHVSYDGPKALFFG”, for which the protein production result is reported as “not failed”.

As for “MFLHSVNLWNLAFYVFMVFLATLGLWDVFFGFEENKCSMSYMFEYPEYQKIELPKKLAKRYPAYELYLYGEGSYAEEHKILPLTGIPVLFLPGNAGSYKQVRSIGSIALRKAEDIDFKYHFDFFSVNFNEELVALYGGSLQKQTKFVHECIKTILKLYKGQEFAPKSVAIIGHSMGGLVARALLTLKNFKHDLINLLITQATPHVAPVMPLDRFITDFYTTVNNYWILNARHINLTTLSVAGGFRDYQVRSGLTFLPKLSHHTSALSVVSSAVPKTWVSTDHLSIVWCKQLQLTTVRAFFDLIDADTKQITQNSKKKLSVLYHHFIRHPSKHFEENPAIISDLTGTSMWVLVKVSKWTYVAYNESEKIYFTFPLENHRKIYTHVYCQSTMLDTNSWIFACINSTSMCLQGVDLSWKAELLPTIKYLTLRLQDYPSLSHLVVYVPSVRGSKFVVDCEFFKKEKRYIQLPVTHLFSFGLSSRKVVLNTNGLYYNLELLNFGQIYQAFKINVVSKCSAVKEEITSIYRLHIPWSYEDSLTIAQAPSSTEISLKLHIAQPENNTHVALFKMYTSSDCRYEVTVKTSFSQILGQVVRFHGGALPAYVVSNILLAYRGQLYSLFSTGCCLEYATMLDKEAKPYKVDPFVIIIKFLLGYKWFKELWDVLLLPELDAVILTCQSMCFPLISLILFLFGTCTAYWSGLLSSASVRLLSSLWLALKRPSELPKDIKMISPDLPFLTIVLIIVSWTTCGALAILLSYLYYVFKVVHLQASLTTFKNSQPVNPKHSRRSEKKSNHHKDSSIHHLRLSANDAEDSLRMHSTVINLLTWIVLLSMPSLIYWLKNLRYYFKLNPDPCKPLAFILIPTMAILGNTYTVSIKSSKLLKTTSQFPLPLAVGVIAFGSAHLYRLPCFVFIPLLLHALCNFM”, the protein production result is “failed”.

For “MFLSVVTVAFRNYEGVVKTWRSLRNLARDPGLSFEWIVVDGGSEDGTREFLRKRHGEFNLRFISEKDRGIYDAMNKGIALAQGRYTLFLNSGDAFHDDAALFVRQLARQKGEAMYIGDALLDFGGGHKIRRKAKPGYYIYHSLPASHQAIFFPTAALKKYPYDLQYHVSSDYALAARLYKAGYPFRRINGLVSEFSMGGVSTSNNLELCQDAKNVQRKILRVPGFWAQLSYLLRLKTTGKTKARYNKVLEHHHHHH”, the protein production entry is recorded as “not failed”.

Turning to “MFLVCGEALFDIFTRADDGGSLNRLGFDAIAGGSPFNVAIGLRRLGVEAAFFAGLSTDYLGRRLRAVLEQETVNAEHLIEFDAPTTLAMVAVGSDGSPTYSFRGDGCADRQLRLEHLPELDERVRGIHVGSFSLVVQPIADTLLALVARESARRLISLDPNVRLNPAPDIQRWRTQIAAFAEHAHLIKVSDEDLHLLYPDSDPQQIAEGWLGKRTQLVIVTRGTQGASVFTRQHGTWSVPAKTVVTADTVGAGDTFQAALLTFLSERQLDTPQGLSTLSRETLDEMLNFAVGAAALTCTKVGPDLPYRHQLG”, the protein production entry was “failed”.

Take “MFLVISVVGSSNIDIVLKVDHFTKPGETQKAIEMNVFPGGKGANQAVTVAKIGEKGCRFVTCIGNDDYSDLLIENYEKLGITGYIRVSLPTGRAFIEVDKTGQNRIIIFPGANAELKKELIDWNTLSESDILLLQNEIPFETTLECAKRFNGIVIFDPAPAQGINEEIFQYLDYLTPNEKEIEALSKDFFGEFLTVEKAAEKFLELGVKNVIVKLGDKGVLLVNKNEKKHFPTFKVKAVDTTAAGDVFNGAFAVALSEGKNPEEAVIFGTAAAAISVTRLGAQSSIPAREEVEAFLKNL”: the protein production result is listed as “not failed”.

As to “MFLVLCSVMIFIGFLLQIYVWPRIPKSIFKYRGLVLSISLIILIFVVRIPLEITALTLPFYLMMFFGLFLFWKDRKL”, the protein production entry is “failed”.

For “MFLVTGVFVSVRHERTGTGTTARESVQRITWFGTLRDDGVALVMPLSDRMLPTGIIREVPEERFLEEFMPDQATYEEHFRETAESLRGRLQLASTLPTDLYPEERILLDALSALLHGRSAAKPVDADIPAVLELLAHGQEGRSAGAFQTRLSGAAVDYRRQGDYPRALLFYDRALTMQGQEDRLLFNVARVHYEMGELAEAETCLKRALESNPALEEAGRFLAFLQKTTLQPQAGDE”, the protein production result was “failed”.

Regarding “MFMAENRLQLQKGSAEETIERFYNRQGIETIEGFQQMFVTKTLNTEDTDEVKILTIWESEDSFNNWLNSDVFKEAHKNVRLKSDDDGQQSPILSNKVFKYDIGYHYQK”, the protein production entry is recorded as “not failed”.

With “MFNAYREYWNNITTMNASATRAQYWWPQLINYLVLGIYSAITGVYRYIEVTPNDGTIIKEWNTVTIIFFLLTALIWLANFTVRARRLHDRDHSNWWILFYLLPFIGTLVIFITLILPSKSHTRWPVNQSEI”, the protein production result is recorded as “failed”.

Turning to “MFNKRLKQQLATLSDELNALQQFKACLESQVLNLELDGEGAIRRANQNFIQALELDGQPLAGVALESIISRHPQAVPLYREFKAALGRNESYTGQLRLQRGGGREAWLQVCVQPIRDGAGRLDHYNLICTDQS”, the protein production result was “failed”.

As to “MFPAQEEADRTVFVGNLEARVREEILYELFLQAGPLTKVTICKDREGKPKSFGFVCFKHPESVSYAIALLNGIRLYGRPINVQYRFGSSRSSEPANQSFESCVKINSHNYRNEEMLVGRSSFPMQYFPINNTSLPQEYFLFQKMQWHVYNPVLQLPYYEMTAPLPNSASVSSSLNHVPDLEAGPSSYKWTHQQPSDSDLYQMTAPLPNSASVSSSLNHVPDLEAGPSSYKWTHQQPSDSDLYQMNKRKRQKQTSDSDSSTDNNRGNECSQKFRKSKKKKRY”, the protein production entry is given as “not failed”.

As to “MFPFTHVHAFNKGNEEVYMDVENGKNGEGSVFRMPLHYPRYSKEDYQDMPEWKLDRVLADYGLSTYGDLAHKRDFAIGAFLWISTRNPKLYQEKSINSKLKKDTKSAHA”, the protein production entry is recorded as “failed”.

With “MFPSFITHIQSPNSHHHYSSPSFPFSSDFLESFDESFLINQFLLQQQDVAANVVESPWKFCKKLELKKKNEKCVDGSTSQEVQWRRTVKKRDRHSKICTAQGPRDRRMRLSLQIARKFFDLQDMLGFDKASKTIEWLFSKSKTSIKQLKERVAASEGGGKDEHLQVDEKEKDETLKLRVSKRRTKTMESSFKTKESRERARKRARERTMAKMKMRLFETSETISDPHQETREIKITNGVQLLEKENKEQEWSNTNDVHMVEYQMDSVSIIEKFLGLTSDSSSSSIFGDSEECYTSLSSVRGTISAAGNSNVLTKNPN”, the protein production entry is recorded as “failed”.

With “MFREFINLLFMQFKMIKAYLPVFIFFSILFPLGFIFSFGTIIQRTLSTYLISGSITFFISINSIISVAQNLALERSSGRFSLMIASGIPIQLYAISITISNGIQTLMLIPVFLVLGYFLLGVRISSALFFVLSIIGSIYMASMVGLLIGTAIRNLHAVNQWSSIIGFILSFFAPVYFPLTQIPLPFRYLAYLEPTTYVSQSTYFALVGNPISLAWFGGTVVIGFLFSFLSSLLMKKAF”, the protein production entry is on record as “failed”.

“MFRRPRLRALSALVLAALTLPAVAQQVLIRGATVHTATSQGTLRNTDVLVQGGVIRAIGTGLAVPTHGRVVEAKGRPLTPALFGGITEIGIEEVSGEAATVDSGVKLTEQPMRPEFDVTLAYNPDSVLIPVARVEGIGFTALGATTSGAFIAGQGGIVRLDGGPDPVGPHALFVRLGAAASDLTGSSRAAQWMLLDQLVAEARGRVPADSPHALLTPVGRSVLANYLAGRGRIVVQVERAADIRQLLRWAQREKVRIAIAGGTEAWKLAPQLAQAKVPVLVDALADLPSTFDQIGATLENAARLRAAGVEVSFTQSGDASHNARKLRQLAGNAVANGLPWESGLAGLTRVPAEIFGVGDRIGSIAVGKQADLVLWDGDPLDVAHYAEQVWMGGRDMPMRSRQTDLRDRYLQQAGPLPRAYQR”: the protein production result was “failed”.

For “MFRSFPVDSPHVYLRWVAISISQPVIRHGSSVVFVGGTPASSFLWPLCINRQNQIQTHFLKSFRIQEFLPRKSQCSRVTTIKETIFYPICLKSSKQIIVNATTFQCINYLLPIQFAYRNEPFRKFFATRIDFSSNQIERTNHSNRI”, the protein production result is given as “failed”.

For “MFRSKSCREETRSSSITNKYHCFSHGEKSESEPTNQQPPVMMRSYSTSTYNAYQNPTIVRDDSNNKSKRSNKVKKKGFKGLCEAEIQRKKRVASYNVYGVEGRVKGSMKKSFKWFKETCSNAVYGLW”, the protein production entry is “failed”.

As for “MFSAKKLSPADKLKNISSMLEEIVEDTTVPRNIRAAADNAKNALHNEEQELIVRSATAIQYLDDISEDPNMPIHTRTQIWGIVSELETIKN”, the protein production entry is reported as “not failed”.

For “MFSIIWMLFTPLLLLCGIAGGIFLIVTGIKYRKLLVGLMGLLSLSFVTLPFVLLSVGIHIDTIFPIPTALYWTLFSLTGLLAGVSGVQAKIKSIRNMGFIIFTIGILGVIFWELMSVGDSFYI”, the protein production entry is reported as “failed”.

Turning to “MFSILLPTWNNLALLKLCVQSIRAHSAHDHQIIVHVNDGSDGTLAWVREQGLDHTHSPGNVGICLAVNESAMLARHDYIVYLNDDMVCCPGWDTALLRRLDTLDTDLFMLSGTMIEPVDTGNPCVVVGNYGRDADTFDAARLLADVPRLARGDWLGATWPPTLVHRRWWFKLGGYSSELTPGMSSDNDFSMKLWHAGCRIFLGAGDSLVYHFQCKSTGKVKKNDGRRQFLNKWGLSQSTFDKYFLRRGTPAGADWRLPEPELTSALRWDLRRNDLTRRLRPGVPVLLEHHHHHH”, the protein production entry was “not failed”.

Regarding “MFSIQQPLLVFSDLDGTLLDSHSYDWQPAAPWLTRLREANVPVILCSSKTSAEMLYLQKTLGLQGLPLIAENGAVIQLAEQWQEIDGFPRIISGISHGEISLVLNTLREKEHFKFTTFDDVDDATIAEWTGLSRSQAALTQLHEASVTLIWRDSDERMAQFTARLNELGLQFMQGARFWHVLDASAGKDQAANWIIATYQQLSGKRPTTLGLGDGPNDAPLLEVMDYAVIVKGLNREGVHLHDEDPARVWRTQREGPEGWREGLDHFFSAR”, the protein production entry was “not failed”.

For “MFSRVPQPLAFAEALLAQFGALSRETDITALLGGFARAVGELSGCELSQLYLLDQTHTALTLNAECRDGLLQALEPSSLPADYTGEQLLQFALCQNRVVSLVDLPSRLHETGFLPAGEQPWLSLLCVPLVSPEKTVEGMVVCATRRPLDLQGFAHPLGQLGSFVLAQLHLLQRLSQPSGE”, the protein production entry is on record as “not failed”.

For “MFSVNNTHSSVSCSPSINSNSTSNEHYLRILTEWEKNSSPGEERGIAFNRLSQCFQNQEAVLNLSDLNLTSLPELPKHISALIVENNKLTSLPKLPAFLKELNADNNRLSVIPELPESLTTLSVRSNQLENLPVLPNHLTSLFVENNRLYNLPALPEKLKFLHVYYNRLTTLPDLPDKLEILCAQRNNLVTFPQFSDRNNIRQKEYYFHFNQITTLPESFSQLDSSYRINISGNPLSTRVLQSLQRLTSSPDYHGPQIYFSMSDGQQNTLHRPLADAVTAWFPENKQSDVSQIWHAFEHEEHANTFSAFLDRLSDTVSARNTSGFREQVAAWLEKLSASAELRQQSFAVAADATESCEDRVALTWNNLRKTLLVHQASEGLFDNDTGALLSLGREMFRLEILEDIARDKVRTLHFVDEIEVYLAFQTMLAEKLQLSTAVKEMRFYGVSGVTANDLRTAEAMVRSREENEFTDWFSLWGPWHAVLKRTEADRWAQAEEQKYEMLENEYSQRVADRLKASGLSGDADAEREAGAQVMRETEQQIYRQLTDEVLALRLSENGSRLHHS”, the protein production result is reported as “not failed”.
